Publication doi:10.1101/2022.01.16.476467 (bioRxiv, 2022)

T1: CASK_CAMK domain (residues 1-345) (Mus musculus, UniProt O70589-3 1-345)
T1 sequence (looked up): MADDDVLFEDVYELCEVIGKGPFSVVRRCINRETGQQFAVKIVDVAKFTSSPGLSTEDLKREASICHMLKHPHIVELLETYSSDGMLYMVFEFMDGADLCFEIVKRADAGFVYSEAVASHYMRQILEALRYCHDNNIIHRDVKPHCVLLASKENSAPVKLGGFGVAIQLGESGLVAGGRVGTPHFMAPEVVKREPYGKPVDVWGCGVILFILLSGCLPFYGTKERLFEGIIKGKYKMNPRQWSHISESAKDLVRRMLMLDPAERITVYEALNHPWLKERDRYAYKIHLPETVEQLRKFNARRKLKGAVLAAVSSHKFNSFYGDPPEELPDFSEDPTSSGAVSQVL

T2: CASK full-length protein (recombinant) (Mus musculus, UniProt O70589-3 1-897)
T2 sequence (looked up): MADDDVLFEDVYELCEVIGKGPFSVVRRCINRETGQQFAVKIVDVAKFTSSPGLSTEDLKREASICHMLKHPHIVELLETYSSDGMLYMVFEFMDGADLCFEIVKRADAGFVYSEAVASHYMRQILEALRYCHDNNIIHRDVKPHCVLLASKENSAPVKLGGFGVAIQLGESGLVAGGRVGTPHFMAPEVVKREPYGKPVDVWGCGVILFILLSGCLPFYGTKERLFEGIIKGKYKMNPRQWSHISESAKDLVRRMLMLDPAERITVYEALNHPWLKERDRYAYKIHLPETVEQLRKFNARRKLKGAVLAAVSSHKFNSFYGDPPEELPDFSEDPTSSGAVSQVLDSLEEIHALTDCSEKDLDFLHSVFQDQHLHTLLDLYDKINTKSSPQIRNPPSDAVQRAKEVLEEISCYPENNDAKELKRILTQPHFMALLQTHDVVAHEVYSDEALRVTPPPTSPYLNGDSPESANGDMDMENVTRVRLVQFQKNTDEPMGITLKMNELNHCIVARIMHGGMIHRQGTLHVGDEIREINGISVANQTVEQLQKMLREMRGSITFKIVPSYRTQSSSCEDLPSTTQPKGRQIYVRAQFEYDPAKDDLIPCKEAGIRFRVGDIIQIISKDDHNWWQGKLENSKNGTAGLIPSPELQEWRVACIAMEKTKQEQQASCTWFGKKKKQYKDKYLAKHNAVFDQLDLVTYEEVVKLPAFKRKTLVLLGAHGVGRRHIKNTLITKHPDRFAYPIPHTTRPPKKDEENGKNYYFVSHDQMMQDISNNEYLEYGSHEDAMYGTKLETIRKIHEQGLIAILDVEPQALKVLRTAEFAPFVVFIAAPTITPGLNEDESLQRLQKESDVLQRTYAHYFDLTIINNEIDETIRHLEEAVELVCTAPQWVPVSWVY


Assays:
[1] = molecular target: T1, CASK_CAMK domain (residues 1-345); assay: ITC
[2] = molecular target: T1, CASK_CAMK domain (residues 1-345); assay: SEC-MALS
[3] = molecular target: T2, CASK full-length protein (recombinant); assay: ITC

Kd [1] [nM]	stoichiometry N [2]	Kd [3] [nM]	Binder
940 ± 90	~1	–	Caskin1 extended CID protein (residues 371-466) (domain or fragment, Mus musculus, UniProt Q6P9K8-1 371-466, looked up) PPEEIWVLRKPFAGGDRSGSLSNVAGGRSTGGHALHAGSEGVKLLATVLSQKSVSESSPGDSPVKPPEGSSGAARSQPPAAHAGQVYGEQPPKKLE
–	–	~760	Caskin1_N-terminal (residues 1-674) (domain or fragment) not shown
